The numbers were not newly measured in publication PMC2947981, which cites them from elsewhere.

By Kd is commonly meant a measure of binding affinity in units of concentration. Usually Ki stands for a measure of affinity in units of concentration, obtained from inhibition or displacement.

Values joined by “and” are separate entries in the source; they are usually repeats but may differ in a detail not shown here. Equal entries are not always repeated. Where two headings read alike, the source gives them in different places.

Data set [1] addresses Factor VIIIa (Homo sapiens) (UniProt P00451).
For data set [2] the target is unchanged. This is another data set of the same source.
The target is the same in data set [3]. This is another data set of the same source.
Data set [4] has the same target. The source holds these as a separate data set.
In data set [5] the target is Factor VIIIa2 A2 (Homo sapiens) (UniProt P00451).
Data set [6] addresses Factor IXa (Homo sapiens) (UniProt P00740).
Data set [7] shares this target. The source holds these as a separate data set.
Data set [8] shares this target. The source holds these as a separate data set.
For data set [9], the target named is Factor VIIIa A2 A2 (Homo sapiens) (UniProt P00451).
Data set [10] deals with Corn trypsin inhibitor (CTI) (Zea mays) (UniProt P01088).
Data set [11] has as its target TFPI (Homo sapiens) (UniProt P10646).
Data set [12] has the same target. The source holds these as a separate data set.
Data set [13] deals with Factor Va (Homo sapiens) (UniProt P12259).
The target of data set [14] is TFPI (Homo sapiens) (UniProt P10646). This is another data set of the same source.
For data set [15], the target named is Factor Va (Homo sapiens) (UniProt P12259). The source holds these as a separate data set.
For data set [16], the target named is Thrombin (IIa) (Homo sapiens) (UniProt P00734).
Data set [17] deals with Factor VIIa (Homo sapiens) (UniProt P08709).
Another data set addresses Factor Xa (Homo sapiens) (UniProt P00742).
Data set [18] concerns the target TFPI (Homo sapiens) (UniProt P10646). This is another data set of the same source.

Sequence of UniProt P12259 (P12259 29-737, chain 1 of 2): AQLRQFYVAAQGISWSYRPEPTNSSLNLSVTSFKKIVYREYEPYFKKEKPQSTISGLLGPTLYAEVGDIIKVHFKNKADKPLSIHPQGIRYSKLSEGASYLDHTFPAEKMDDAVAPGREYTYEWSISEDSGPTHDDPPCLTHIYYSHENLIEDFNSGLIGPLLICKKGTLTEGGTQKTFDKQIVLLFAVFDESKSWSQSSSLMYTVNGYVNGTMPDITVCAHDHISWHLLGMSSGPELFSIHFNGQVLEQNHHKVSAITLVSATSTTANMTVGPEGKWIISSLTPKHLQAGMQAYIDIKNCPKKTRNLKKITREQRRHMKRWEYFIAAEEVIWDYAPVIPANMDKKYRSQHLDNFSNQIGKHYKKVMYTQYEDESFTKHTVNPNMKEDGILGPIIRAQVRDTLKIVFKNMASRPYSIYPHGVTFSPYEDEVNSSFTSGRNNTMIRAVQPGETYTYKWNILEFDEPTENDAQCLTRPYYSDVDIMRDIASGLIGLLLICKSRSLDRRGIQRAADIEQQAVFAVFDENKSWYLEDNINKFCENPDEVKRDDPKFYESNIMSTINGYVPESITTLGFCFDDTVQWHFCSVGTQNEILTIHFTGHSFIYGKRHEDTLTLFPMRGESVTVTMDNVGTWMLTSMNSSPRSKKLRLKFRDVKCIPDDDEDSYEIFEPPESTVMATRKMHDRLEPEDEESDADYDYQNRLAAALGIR
Sequence of UniProt P12259 (P12259 1574-2224, chain 2 of 2): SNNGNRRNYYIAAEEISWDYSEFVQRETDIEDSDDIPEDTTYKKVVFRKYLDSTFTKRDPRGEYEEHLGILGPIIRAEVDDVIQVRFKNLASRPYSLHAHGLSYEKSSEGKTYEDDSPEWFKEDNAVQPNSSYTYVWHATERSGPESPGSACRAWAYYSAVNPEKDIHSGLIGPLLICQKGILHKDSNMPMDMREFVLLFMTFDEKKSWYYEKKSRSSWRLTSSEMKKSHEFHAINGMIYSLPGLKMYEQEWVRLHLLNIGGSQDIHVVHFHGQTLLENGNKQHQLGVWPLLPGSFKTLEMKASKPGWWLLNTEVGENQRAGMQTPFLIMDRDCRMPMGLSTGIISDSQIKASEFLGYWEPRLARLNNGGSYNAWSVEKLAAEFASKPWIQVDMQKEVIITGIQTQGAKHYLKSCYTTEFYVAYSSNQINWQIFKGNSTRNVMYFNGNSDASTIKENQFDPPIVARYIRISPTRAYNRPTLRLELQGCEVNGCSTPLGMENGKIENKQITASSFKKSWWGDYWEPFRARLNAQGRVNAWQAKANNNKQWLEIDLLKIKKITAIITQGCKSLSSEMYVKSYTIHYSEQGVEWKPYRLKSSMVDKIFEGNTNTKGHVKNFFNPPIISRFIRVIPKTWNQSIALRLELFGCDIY
Sequence of Factor VIIIa (P00451 1668-2351): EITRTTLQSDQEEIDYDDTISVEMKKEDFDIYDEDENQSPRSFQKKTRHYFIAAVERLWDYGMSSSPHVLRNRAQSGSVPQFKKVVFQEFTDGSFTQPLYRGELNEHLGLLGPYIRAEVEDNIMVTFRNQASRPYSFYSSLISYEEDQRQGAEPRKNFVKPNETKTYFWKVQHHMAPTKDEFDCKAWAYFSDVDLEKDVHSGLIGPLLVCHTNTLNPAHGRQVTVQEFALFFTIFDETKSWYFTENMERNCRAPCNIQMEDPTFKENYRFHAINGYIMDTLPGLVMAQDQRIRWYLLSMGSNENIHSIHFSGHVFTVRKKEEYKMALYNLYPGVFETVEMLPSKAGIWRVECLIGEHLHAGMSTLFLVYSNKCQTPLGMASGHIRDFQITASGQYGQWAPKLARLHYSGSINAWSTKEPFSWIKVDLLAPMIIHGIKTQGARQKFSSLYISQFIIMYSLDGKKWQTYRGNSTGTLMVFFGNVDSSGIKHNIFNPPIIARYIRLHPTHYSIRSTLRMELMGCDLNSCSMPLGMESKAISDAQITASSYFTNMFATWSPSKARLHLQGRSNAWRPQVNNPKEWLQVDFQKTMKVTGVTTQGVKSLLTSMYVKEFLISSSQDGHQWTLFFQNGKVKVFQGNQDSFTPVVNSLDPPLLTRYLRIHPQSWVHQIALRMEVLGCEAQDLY
Sequence of UniProt P10646 (P10646 29-304): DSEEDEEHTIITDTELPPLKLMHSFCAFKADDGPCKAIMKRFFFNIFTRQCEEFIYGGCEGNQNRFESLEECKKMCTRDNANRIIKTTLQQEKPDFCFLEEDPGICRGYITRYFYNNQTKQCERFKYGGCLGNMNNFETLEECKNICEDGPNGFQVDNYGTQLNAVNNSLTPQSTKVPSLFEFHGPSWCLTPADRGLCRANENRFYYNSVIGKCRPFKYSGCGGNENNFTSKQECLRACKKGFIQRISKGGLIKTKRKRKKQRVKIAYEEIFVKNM
Sequence of UniProt P08709 (P08709 61-212, chain 1 of 2): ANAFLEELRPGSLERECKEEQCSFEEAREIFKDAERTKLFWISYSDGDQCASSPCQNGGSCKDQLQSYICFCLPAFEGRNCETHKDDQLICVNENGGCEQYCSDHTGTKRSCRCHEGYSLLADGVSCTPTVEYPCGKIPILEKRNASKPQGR
Sequence of UniProt P08709 (P08709 213-466, chain 2 of 2): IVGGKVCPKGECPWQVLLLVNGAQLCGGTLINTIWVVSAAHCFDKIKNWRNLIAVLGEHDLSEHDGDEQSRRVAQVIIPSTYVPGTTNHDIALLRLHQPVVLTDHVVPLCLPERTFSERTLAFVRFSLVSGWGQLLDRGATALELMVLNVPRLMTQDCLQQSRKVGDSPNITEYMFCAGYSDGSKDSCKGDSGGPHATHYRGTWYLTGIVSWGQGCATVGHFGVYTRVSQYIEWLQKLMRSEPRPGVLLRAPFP
Sequence of UniProt P01088 (P01088 29-138): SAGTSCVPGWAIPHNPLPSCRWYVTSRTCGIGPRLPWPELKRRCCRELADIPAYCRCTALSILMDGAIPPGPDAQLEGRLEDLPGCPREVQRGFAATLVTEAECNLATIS

Consider Factor IXa (from UniProt P00740), for which the Kd in [1] was 0.074 nM; in data set [2], 351 nM; in data set [3], 4 nM; in [4], 0.55 nM.
For the substance “Factor VIIIa1-L A1-L (from UniProt P00451)”, the Kd in data set [5] was 270 nM.
With Factor VIIIa (from UniProt P00451), the figures for the Kd in data set [6], in [7] and in data set [8] were 0.55 nM, 4 nM and 0.074 nM, respectively.
“Factor VIIIa A1/A3-C1-C2 A1/A3-C1-C2 (from UniProt P00451)”: the Kd in data set [9] was 260 nM.
On to Factor XIIa (from UniProt P00748), for which the Ki in data set [10] is 24 nM.
Consider Factor Xa (from UniProt P00742), for which the Kd was 0.4 nM with TFPI (Homo sapiens) [11]; 3.3 nM and 0.5 nM with Factor Va (Homo sapiens) [13]; 0.03 nM in the data set with Factor Va (Homo sapiens) [15]. Further, the Ki with TFPI (Homo sapiens) [12] is 0.0852 nM; with TFPI (Homo sapiens) [14], 0.0652 nM.
For Fibrin II (Fbn2) (from UniProt P02671), in data set [16], the Kd is 10 µM.
Turning to GP1bα (from UniProt P07359), in data set [17], the Kd is 20 nM.
As for TF-VIIa complex (from UniProt P13726), in the data set with Factor Xa (Homo sapiens), the Kd is 860 nM.
On to “TF-VIIa-Xa complex (from UniProt P13726)”, for which the Kd with TFPI (Homo sapiens) [18] was 0.34 pM.
